Literature values in paper PMC8036930.

Molecular target: albumin (Rattus norvegicus) (UniProt P02770)
Sequence of UniProt P02770 (P02770 25-608): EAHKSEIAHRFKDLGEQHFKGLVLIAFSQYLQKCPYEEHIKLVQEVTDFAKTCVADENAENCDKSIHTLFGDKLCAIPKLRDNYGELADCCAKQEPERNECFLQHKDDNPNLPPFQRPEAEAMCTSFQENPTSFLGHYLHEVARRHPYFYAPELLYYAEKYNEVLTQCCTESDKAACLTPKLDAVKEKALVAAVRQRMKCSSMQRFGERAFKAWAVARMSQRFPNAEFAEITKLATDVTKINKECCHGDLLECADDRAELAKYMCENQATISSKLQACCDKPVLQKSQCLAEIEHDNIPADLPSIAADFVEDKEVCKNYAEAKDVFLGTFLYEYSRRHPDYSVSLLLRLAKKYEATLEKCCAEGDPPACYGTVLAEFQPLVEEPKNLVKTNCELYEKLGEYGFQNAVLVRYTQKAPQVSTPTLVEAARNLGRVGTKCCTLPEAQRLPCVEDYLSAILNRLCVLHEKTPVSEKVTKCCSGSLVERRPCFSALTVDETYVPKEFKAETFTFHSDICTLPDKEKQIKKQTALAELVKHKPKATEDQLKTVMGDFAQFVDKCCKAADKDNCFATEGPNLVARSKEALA

Kd: 0.63 µM
Substance: cubilin (from UniProt O70244)
